Assay results as given in the supplement of paper PMC9170038.

Test system: MS2 coat protein
Experiment: apparent KD of MS2 coat protein; designed switch direction (-1 OFF switch, 1 ON switch): 1; higher = weaker reporter binding
Outline: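 Designed RNA switches were transcribed on Illumina chips by stalled E. coli RNA polymerase and titrated with SNAP-549-labelled MS2 coat protein from 0.7 or 1.5 nM, doubling to 3 µM. Step length ran from 0.8–1.5 h at the lowest concentration to 10–20 min at the highest. The apparent KD is the median over clusters for each design, from curve-fitted normalised cluster fluorescence.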

[1] = Eterna round: R95, input ligand: FMN 200 uM
[2] = Eterna round: R95, input ligand: microRNA oligo, concentration not stated
[3] = Eterna round: R95, input ligand: none
[4] = input ligand: microRNA oligo, concentration not stated

Row | Sequence | apparent KD of MS2 coat protein [1] | apparent KD of MS2 coat protein [2] | apparent KD of MS2 coat protein [3] | apparent KD of MS2 coat protein (input ligand: FMN 200 uM) | apparent KD of MS2 coat protein [4] | apparent KD of MS2 coat protein (input ligand: none)
1 | AGUCCAGCCUGAGCUGGACAAAAGCAUGUACAUGAGGAUCACCCAUGUCAUGUGCAAGCUUUUUGCUCGUCUUAAUA [Zipper 49 - 5] (puzzle: Sensor for hsa-mir-208a) | 64.5 nM | 11.9 nM | 70.3 nM | – | – | –
2 | GCGAGCGUACUUGCAGACAUGAGGAUCACCCAUGUAACUGGACAGGAUAUGGUACCGUUUCGGUACCAGAAGGGUUUACUCAUG [JL SSNG3 3.57] (Eterna round: R96, puzzle: Same State NG 3) | – | – | – | 67.2 nM | 84 nM | 69.1 nM
3 | GUUACAUGAGGAUCACCCAUGUAUGUGUGGGAGUAAGUGUCUUAGGAUAUCUAUCAUUUAAUUGAAGAGAAGGAAGAUUGUUGU [JMF's solution 99] (Eterna round: R96, puzzle: Same State NG 3) | – | – | – | 140 nM | 71.2 nM | 113 nM
4 | GCUCGAUGUGCUGUUUACAUGAGGAUCACCCAUGUAGAUGCGGAGGAUAUCUACGUGCUUUAUGUAGAGAAGGCCGUAUCGAGC [SameState NG3 #82] (Eterna round: R96, puzzle: Same State NG 3) | – | – | – | 15 nM | 25.4 nM | 35.1 nM
5 | GGCGAACAGGCUAACAUGAGGAUCACCCAUGUGGACUCAUGUUAGGAUAUCGGGAAGGAGGAAACCGAGAAGGGACGGUGAGCC [AK SSNG3-V2-47] (Eterna round: R96, puzzle: Same State NG 3) | – | – | – | 18.8 nM | 9.25 nM | 82.3 nM
6 | AUACCGUGCCAAGGAUAUGGUGUAAACACAUGAGGAUCACCCAUGUCAGAGAGUCGAGCGACUAGCUAGAAGGUGGUAUGGGAA [Eternabot solution 9] (Eterna round: R96, puzzle: Same State NG 2) | – | – | – | 112 nM | 149 nM | 393 nM
7 | GUAUCUACAGGUUGCGAUGCUCGUCUGAUACAUGAGGAUCACCCAUGUUAUAGCCCUGUGCUUGCGCAGGGCUGAUU [Sensor for hsa-mir-208a ( MOD of Tearor v.2 )] (puzzle: Sensor for hsa-mir-208a) | 136 nM | 33.4 nM | 116 nM | – | – | –
8 | GGAGCCGGCCUAGGAUAUUUCAUAAAGAAACAUGAGGAUCACCCAUGUAGGCCAGAAGGCCUUGGGAAGAAGGAGGUCGGCUCC [Loop Effect - G27] (Eterna round: R96, puzzle: Same State NG 2) | – | – | – | 12.4 nM | 29 nM | 28.7 nM
9 | AUUUUUUAUGCAGGAUAUGAUUAACAUGAGGAUCACCCAUGUGGUGUUGUGAGUAAGGAGAGUGAUCAGAAGGGCAUUUUUUUU [JMF's solution 68] (Eterna round: R96, puzzle: Same State NG 2) | – | – | – | 579 nM | 318 nM | 401 nM
10 | GCGAACUGUGUAGGAUAUUGAGCACUUUUGGAGCAAGAAGGACACCAAGUGCUGACUAUACAUGAGGAUCACCCAUGUUCAGCA [Eternabot solution 22] (Eterna round: R96, puzzle: Same State NG 1) | – | – | – | – | 21.4 nM | –
11 | UGUAAACAUGAGGAUCACCCAUGUAAUAUAAUGGGAGGAUAUCUGAAUUAAUUAAAUUAAGGAGAAGGCCUAAUGG [Mat - Same State 1 - Mod of Eli - D48] (puzzle: Same State 1) | 79.8 nM | 995 nM | 563 nM | – | – | –
12 | AAGGUGCAGGUACAGGAUAUGUUGCUCGUAACAUGAGGAUCACCCAUGUACCUAUGAGAUUAAAUGCAGAAGGGUGCACACCAAA [Mat - Same State 2 - Mod of UCT - D91] (puzzle: Same State 2) | 73 nM | 484 nM | 302 nM | – | – | –
13 | GGUCCCUACGCACAGGAUAUUCUUUUGGCAACAUGAGGAUCACCCAUGUGUGCCGAUCAUGGUUAGAAGAAGGGUGGUAGGGACC [Usisus] (Eterna round: R96, puzzle: Same State 2) | – | – | – | 10 nM | 10.5 nM | 19.8 nM
14 | UGUUGUAUUACAGGAUAUCUAUAAUUUUUAUUUAGAGAAGGGUAUUCACAUGAGGAUCACCCAUGUAUAUACGAGGAAGUUGUG [JMF's solution 10] (Eterna round: R96, puzzle: Same State NG 1) | – | – | – | – | 31.1 nM | –
15 | GUUAAACAUGAGGAUCACCCAUGUAAUAUAAUGGGAGGAUAUCUGAAUUAAUUAAAUUAAGGAGAAGGCCUAAUGG [Mat - Same State 1 - Mod of Eli - D51] (puzzle: Same State 1) | 83.3 nM | 481 nM | 608 nM | – | – | –
16 | GUGCUACAUGAGGAUCACCCAUGUACAAAUGUACGAGGAUAUGCAUGGGCUAAUGCUGGUGCAGAAGGCGUAGCGC [Pin2Pin #7] (puzzle: Same State 1) | 18 nM | 33.9 nM | 41.5 nM | – | – | –

Row | Sequence | apparent KD of MS2 coat protein [1] | apparent KD of MS2 coat protein [2] | apparent KD of MS2 coat protein [3] | apparent KD of MS2 coat protein (input ligand: FMN 200 uM) | apparent KD of MS2 coat protein [4] | apparent KD of MS2 coat protein (input ligand: none)
17 | GAGUAGUUGAAAGGAUAUUGAUUGUUAUAGAAUCAAGAAGGUUCUAACAUGAGGAUCACCCAUGUAGGACUAUUCCUGUGUAUC [Parity 78 - Jieux - Same State NG 1] (Eterna round: R96, puzzle: Same State NG 1) | – | – | – | – | 9.15 nM | –
18 | AGUCCAGCCAGAGCUGGACAAAAGCAUGUACAUGAGGAUCACCCAUGUUCAUGUACAAGCUUUUUGCAAGUCAAAAU [Mat - hsa-mir-208a - Mod of JL - 83] (Eterna round: R96, puzzle: Sensor for hsa-mir-208a) | – | – | – | 578 nM | 16 nM | 592 nM
19 | UAGAUUCACGUAGGAUAUCGACCUACAUGAGGAUCACCCAUGUUUUUGAAUAGAUUUUUUAGUUACGAGAAGGACGUUAUGUAU [JR_SSNG2_Sub063] (Eterna round: R96, puzzle: Same State NG 2) | – | – | – | 96 nM | 210 nM | 473 nM
20 | GCGAGCGUACUUGCUACAUGAGGAUCACCCAUGUUUGAUGGACAGGAUAUGGUACCGUUUCGGUACCAGAAGGGUUCACAUGUA [JL SSNG3 3.79] (Eterna round: R96, puzzle: Same State NG 3) | – | – | – | 71.4 nM | 268 nM | 214 nM
21 | UCAAGCGCACAUGAGGAUCACCCAUGUACCGAGAGUCGUCGUCGGAGAAUGAUGCAUGCUGCUGCUAUUCCACAUUA [Default title] (puzzle: Sensor for hsa-mir-208a version 2) | 89.5 nM | 66.8 nM | 85.3 nM | – | – | –
22 | GUGGUCAGACAUGAGGAUCACCCAUGUGGAAUAAAUAACGGUGAGGAUAUUGAAUAUAGGAUAUACGAGAAGGCAUGAUUGGUG (Eterna round: R96, puzzle: Same State NG 3) | – | – | – | 208 nM | 114 nM | 123 nM
23 | GAGUGGUAAAGAGGAUAUGCAUUGUUAUUCACUGUAGAAGGUUUUAACAUGAGGAUCACCCAUGUAGGACUAUUCCUGUGUUUC [Parity 63 - Jieux - Same State NG 1] (Eterna round: R96, puzzle: Same State NG 1) | – | – | – | 14.4 nM | 11.8 nM | 17.3 nM
24 | AAGAGAGGAAGCGAGGAUAUCGUGGGAGGGACAUGAGGAUCACCCAUGUAGGAUGUAGAGAGGAACGAGAAGGCGCAGGAAAGAA [JR_SS2_Sub073] (puzzle: Same State 2) | 49 nM | 67.7 nM | 79.2 nM | – | – | –
25 | ACUCGGCAGAUAGGAUAUCCUGCAUGGAUAGUAGGAGAAGGAUCGUGCGCACAUGAGGAUCACCCAUGUGCCAAAUAAUAACAA [Reatedor] (Eterna round: R96, puzzle: Same State NG 1) | – | – | – | 11 nM | 12.8 nM | 18.4 nM
26 | AUUAUUUCAUGAGGAUAUGGCACCUUAUUGGUGCCAGAAGGCAUGUCUAUUGACAUGAGGAUCACCCAUGUAUUAAAUUAUAUA [Eli NG1ss - 89] (Eterna round: R96, puzzle: Same State NG 1) | – | – | – | – | 387 nM | –
27 | AAGGUGCAGGUACAGGAUAUGUUGCUCGUAACAUGAGGAUCACCCAUGUACCUAUGAGAUUAAAUGCAGAAGGGUGCACACCAAA [Mat - Same State 2 - Mod of UCT - D91] (Eterna round: R96, puzzle: Same State 2) | – | – | – | 70.6 nM | 168 nM | 731 nM
28 | GGUCGGACAAAACAUGAGGAUCACCCAUGUCCGGAAACGGCAUAGGAUAUCUGUCCGAAAAGGUCAGAGAAGGGUGAACCGACC [Fiskers NG3ss - 70] (Eterna round: R96, puzzle: Same State NG 3) | – | – | – | 91.2 nM | 26.1 nM | 140 nM
29 | AACAAUCUAUCUGAGGAUAUCAUGAAUUAAACAUGAGGAUCACCCAUGUGCAGGAAAACUGCAUAUGAGAAGGCAGAUAGAUUGA [salish99_ss2_r3_032] (puzzle: Same State 2) | 40.2 nM | 707 nM | 58.7 nM | – | – | –
30 | GCUACAUGAGGAUCACCCAUGUGUGUGUGGGAGUGAGUGGCUUAGGAUAUCUAUGAUUUUAGUUGAGAGAAGGAGGAUUGCUGU [SS-NG3-LRO09] (Eterna round: R96, puzzle: Same State NG 3) | – | – | – | 471 nM | 317 nM | 336 nM
31 | GACAUUCUAUCUCAGGAUAUCAUGUCAAAGACAUGAGGAUCACCCAUGUACCAGGAAACUGGUUAUGAGAAGGGAGAUAGAAUGA [Mat - Same State 2 - Mod - D46] (puzzle: Same State 2) | 103 nM | 1880 nM | 176 nM | – | – | –
